Earlier results, collected in patent publication US20200276303A1, “Combination Therapies and Uses for Treatment of Demyelinating Disorders” (Biogen MA Inc., priority 2012, published 2020).

Conditions: for Disease activity measured by brain lesions (MRI scans) and relapse rate compared to placebo: Phase 2 clinical studies in relapse remitting MS

In the case of alemtuzumab: antibody against CD52, the “Phase III studies comparing with Rebif (high-dose subcutaneous interferon beta-1a)” value (patients with relapsing-remitting MS (RRMS)) is given as “positive results”.

In the case of rituximab: antibody against CD20, the “Disease activity measured by brain lesions (MRI scans) and relapse rate compared to placebo” value is given as “statistically significant reduction”.

For ocrelizumab: antibody against CD20, the “Disease activity measured by brain lesions (MRI scans) and relapse rate compared to placebo” value is listed as “statistically significant reduction”.

B1: Daclizumab: therapeutic humanized monoclonal antibody to the alpha subunit of the IL-2 receptor of T cells (antibody, chains of the INN, looked up, V domains shown)
VH: QVQLVQSGAEVKKPGSSVKVSCKASGYTFTSYRMHWVRQAPGQGLEWIGYINPSTGYTEYNQKFKDKATITADESTNTAYMELSSLRSEDTAVYYCARGGGVFDYWGQGTLVTVSS
VL: DIQMTQSPSTLSASVGDRVTITCSASSSISYMHWYQQKPGKAPKLLIYTTSNLASGVPARFSGSGSGTEFTLTISSLQPDDFATYYCHQRSTYPLTFGQGTKVEVK
For B1, the “Reducing lesions and improving clinical scores” value (patients with multiple sclerosis not controlled with interferon) is given as “effective”.
